Assays:
MalE-EspB fusion protein = assay: EspB autophosphorylation gel electrophoresis assay; type: biochemical, Staphylococcus aureus; details: purified protein pretreated with 2 M or 0.5 M guanidine-HCl, then dialyzed; [γ-32P]ATP 30 minutes; vs protein not pretreated
Description: Enzyme autophosphorylation activity was assayed as described in Example 4 below. Samples containing equal amounts of purified MalE-EspB fusion that had either been treated or not with guanidine-HCl were incubated with [γ-^32P]ATP for 30 minutes, analyzed by polyacrylamide gel electrophoresis, and exposed to X-ray film. In FIG. 3 the bands show the autophosphorylated protein, and can be quantitated. Lanes 1 and 2 show the activity of purified protein samples that had not been pretreated with guanidine-HCl, whereas the protein samples inlanes 3 and 4 had been pretreated with 2 M and 0.5 M guanidine-HCl, respectively, and dialyzed afterwards against enzyme storage buffer. When the X-ray picture is greatly overexposed, the protein bands become also apparent on lanes 1 and 2. The experiment showes that pretreatment with guanidine-HCl activates MalE-EspB by approximately 40 to 100-fold, a likely consequence of denaturing and then refolding the purified MalE-EspB protein.
Volumes of 18.5 μl of compounds diluted in 6% DMSO or controls of 6% DMSO alone were mixed in a microcentrifuge tube with an equal volume of EspB reaction mixture (containing EspB at 0.58 mg/ml in a salt buffer of 328 mM Tris-HCl [pH 8.0], 225 mM KCl, 0.4 mM PMSF {phenylmethylsulfonyl fluoride}, 1.2 mM DTT, 0.2 mM EDTA, 9.3 mM MnCl2, and 10% glycerol). […]

[1] = molecular target: T1, EspA cognate response regulator (UniProt Q5HJX7)
T1 sequence: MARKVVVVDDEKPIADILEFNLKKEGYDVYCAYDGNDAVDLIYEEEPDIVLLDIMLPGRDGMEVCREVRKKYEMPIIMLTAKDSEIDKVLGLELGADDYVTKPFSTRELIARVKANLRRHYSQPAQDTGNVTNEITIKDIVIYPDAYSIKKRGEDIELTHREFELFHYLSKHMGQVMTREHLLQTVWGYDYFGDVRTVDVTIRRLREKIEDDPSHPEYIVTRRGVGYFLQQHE

| Compound | activation of MalE-EspB autophosphorylation activity by pretreatment (MalE-EspB fusion protein) | transphosphorylation of EspA by EspB without Ca++, [gamma-32P]ATP, SDS-PAGE and X-ray film [1] | transphosphorylation of EspA by EspB, [gamma-32P]ATP, SDS-PAGE and X-ray film [1] |
| --- | --- | --- | --- |
| Cl.N=C(N)N [guanidine-HCl, Guanidine-HCl] | 40 to 100 fold |  |  |
| MalE-EspB fusion protein |  | this transphosphorylation requires the presence of Ca^++ whereas autophosphorylation of EspB does not (absence of the EspA band in lane 5) | EspA is unable to autophosphorylate (lane 3), but that it can be transphosphorylated by its cognate HPK EspB (lane 2) |

Reference: US20020004214A1, “Method to detect modulators of histidine kinases” (priority 1999, published 2002)
